Test [1] deals with T1, protein from fusion between YFP and the insulin receptor (Boute et al., 2001) (UniProt P06213 28-1382).
T1 construct: whole, on cells; Specificity control in BRET; also called insulin receptor-YFP; not shown: YFP
Kind of test: BRET in living cells coexpressing the fusion proteins.

Test [2] has as its target T2, OBRs-YFP fusion protein (short form of the leptin receptor fused at its C-terminal end to YFP) (human).
T2 construct: also called OB-R-YFP; acceptor fusion protein
Kind of test: BRET in living cells, fusion proteins expressed in equimolar amounts. The method, then: 48 hours after transfection, HeLa, COS and HEK 293 cells expressing OBR were detached and washed with PBS. 1-2×10⁵ cells were distributed into 96-well optical plates (Packard Instrument Company, Meriden, Conn.) in the presence or absence of ligands, at 25° C. Membranes prepared from cells expressing OBR were used for the measurements of BRET. The substrate, coelenterazine h (Molecular Probes, Eugene, Oreg.), was added at a final concentration of 5 μM and the reading was carried out with a Fusion™ fluoro/luminometer (Packard Instrument Company, Meriden, Conn.), which permits the sequential integration of the luminescence signals detected with two filters (Luc filter: 485+10 nm; YFP filter: 530±12.5 nm). The BRET ratio is defined as the difference in the emission at 530 nm/485 nm of the cotransfected Luc and YFP fusion proteins and the emission at 530 nm/485 nm of the Luc fusion protein alone. The results are expressed in milliBRET units (mBU), 1 mBRET unit corresponding to the value of the BRET ratio multiplied by 1 000. The following ligands were used to determine the specificity of the assay: recombinant human erythropoietin (EPO), insulin (Ins), lipopolysaccharide (LPS, Sigma Aldrich, St. Louis, USA), recombinant human trombopoietin (TPO), GM-CSF, interleukin 3 (IL3), interleukin 6 (IL6), prolactin (PRL), SCF, EGF and TNFα. […]
On the technique in general: Bioluminescence resonance energy transfer reports proximity on the nanometre scale.

B1: OBRs-Luc fusion protein (short form of the leptin receptor fused at its C-terminal end to Renilla luciferase) (receptor)
chain: ASISARQEQKLISEEDLTRYPITPWRFKLSCMPPNSTYDYFLLPAGLSKNTSNSNGHYETAVEPKFNSSGTHFSNLSKTTFHCCFRSEQDRNCSLCADNIEGTTFVSTVNSLVFQQIDANWNIQCWLKGDLKLFICYVESLFKNLFRNYNYKVHLLYVLPEVLEDSPLVPQKGSFQMVHCNCSVHECCECLVPVPTAKLNDTLLMCLKITSGGVIFRSPLMSVQPINMVKPDPPLGLHMEITDDGNLKISWSSPPLVPFPLQYQVKYSENSTTVIREADKIVSATSLLVDSILPGSSYEVQVRGKRLDGPGIWSDWSTPRVFTTQDVIYFPPKILTSVGSNVSFHCIYKKENKIVPSKEIVWWMNLAEKIPQSQYDVVSDHVSKVTFFNLNETKPRGKFTYDAVYCCNEHECHHRYAELYVIDVNINISCETDGYLTKMTCRWSTSTIQSLAESTLQLRYHRSSLYCSDIPSIHPISEPKDCYLQSDGFYECIFQPIFLLSGYTMWIRINHSLGSLDSPPTCVLPDSVVKPLPPSSVKAEITINIGLLKISWEKPVFPENNLQFQIRYGLSGKEVQWKMYEVYDAKSKSVSLPVPDLCAVYAVQVRCKRLDGLGYWSNWSNPAYTVVMDIKVPMRGPEFWRIINGDTMKKEKNVTLLWKPLMKNDSLCSVQRYVINHHTSCNGTWSEDVGNHTKFTFLWTEQAHTVTVLAINSIGASVANFNLTFSWPMSKVNIVQSLSAYPLNSSCVIVSWILSPSDYKLMYFIIEWKNLNEDGEIKWLRISSSVKKYYIHDHFIPIEKYQFSLYPIFMEGVGKPKIINSFTQDDIEKHQSDAGLYVIVPVIISSSILLLGTLLISHQRMKKLFWEDVPNPKNCSWAQGLNFQKRTDILDPPARATMTSKVYDPEQRKRMITGPQWWARCKQMNVLDSFINYYDSEKHAENAVIFLHGNAASSYLWRHVVPHIEPVARCIIPDLIGMGKSGKSGNGSYRLLDHYKYLTAWFELLNLPKKIIFVGHDWGACLAFHYSYEHQDKIKAIVHAESVVDVIESWDEWPDIEEDIALIKSEEGEKMVLENNFFVETMLPSKIMRKLEPEEFAAYLEPFKEKGEVRRPTLSWPREIPLVKGGKPDVVQIVRNYNAYLRASDDLPKMFIESDPGFFSNAIVEGAKKFPNTEFVKVKGLHFSQEDAPDEMGKYIKSFVERVLKNEQ
notes: Expressed in COS, HeLa or HEK 293 cells; also assayed in membranes and extracts; also called OB-R-Luc; donor fusion protein
B1: the binding result is “no binding” in test [1] and “binds” in test [2].

The values above are taken from patent US20040132093A1 (AVENTIS PHARMA S A, published 2004).
